According to US20260174822A1:

Target: GLP-1R on GeneBLAzer GLP-1R-CRE-bla CHO-K1 cells
Experiment: cell-based or functional assay

EC50 of GLP-1R activation (460/530 ratio, GeneBLAzer GLP-1R-CRE-bla CHO-K1 reporter cells) [nM] | Substance
192 | GLP-1-His protein (peptide)
35.9 | GLP-1-RFRS-His protein (peptide)
